The DeepSol protein solubility set

test: soluble on expression in E. coli; label from the status in PepcDB or PDB records

Sequence	soluble on expression in E. coli
MNENGATPVAAARRHRPLPAERATSNSNETGLLINVIRSLTSSVSEDQREVEKSRLEKGYKESGALIDRLVKNHQQDVEKCLVSFRDVSSKISNCRERIHNVRNALHTVKSLLELRRDDLKKLWHENAQQKSVCEIMAKLEELREAPSKIENLISKEQYQQAADTVTESRELINGRLSRVEGLSHLSAEIERFTKILIDKINDTLVNMLVVEPFEKHLLHIVRTIPEHRINQNAYCHSLSTKSRSGSGSVSSFSDVSAKSRIVSSVEALSTLFRTVEERHWDVDRLMMLGKNMIDKMIVNTVQVMKIGANIDESNEGDTTHLKQLMQLLSAQFDSASQQHAEFGVLVEKQLGRKDVVTSFWRSAQSAIEVVVSEHLDINPLLEKQNVLGTASRKQLFRFENTACATPNANSSSHRTKAVICKPSAYNIKVIFPILSRLMETTEKNINDSPCELRRFMHSFVMEVFVERVKGELASRIEGALRGGEAVRVSTNKKILPSCEKVLNLCKEVQDLIVSIDLYADRFAALWLLVLTDYFKNMTDVYDRMTPKNPDPSLPNSEALPTRRQKISAAWTADDDISRLLMSLPNWHAASISPMTPAVESELDVGERNKRESEILIGNLGTQAQNSLSESDLITDMNDIKMFASLHESLRWFSDEIRELVHSLPANVKMMLDTCMVQVRLKDGQMIDNNSVPSAIEDCVRRLESIADSCLLLLHIEIRVHCFFHLAPLAKYRNTSSHNEVDPEVVALGKDLHQFHDNLKDVLSPAKLSYVFDGLGHLCASLFIHYSQFMPRLTEAAKKRVCRNVWGVQQRLSRITNRRESDLDRARAFFDLLLDNTPDGILAIVPEKRSQFTATELNYLLALSVRSDKTLASQPGALEKRQMVLNSILNQKK	not soluble
MVRVDQNLFNEVMYLLDELSQDITVPKNVRKVAQDSKAKLSQENESLDLRCATVLSMLDEMANDPNVPAHGRTDLYTIISKLEALS	soluble
MSNITIYHNPACGTSRNTLEMIRNSGTEPTIILYLENPPSRDELVKLIADMGISVRALLRKNVEPYEQLGLAEDKFTDDQLIDFMLQHPILINRPIVVTPLGTRLCRPSEVVLDILQDAQKGAFTKEDGEKVVDEAGKRLK	soluble
MLNEREKILLKTLVERYIHEGQPVGSRSLAKFSGLDLSPATIRNVMTDLEEMGYVSSPHTSAGRMPTTLGYRFFVDTLLVVKSLDNEQITLLENQLHPNNPTHLMNVTSRLLSELTRFVGVVVTPKRMGGAVFRHIEFVALTEKRILLILVTPEGDVQNRIILTETAYSQSDLIEAGNFLNQHYAGCTLEEIRSGLQRELTQLRRDMTGLMNAAIEIGNDALQESSEAVVIAGEHRLFDVRDLSDNLSSLKSLFEMFERKSKLLQLMELSRQAHGVKIFIGGESDETMLEEVSVVTAPYEMEGKIVGTVGVIGPRRMAYERIIPIVDITAKLLSSNLS	not soluble
MSLGNAMNITSCISQSECSCQLSESTSDTNSNSSFKTRSLGYDRSSQSLSISDVELGFKSVTETSSNNYRLRRIIESNDFFKDVMYKFFLLRENSLVLDQSKSYYSDKDPHYSIICSDYYVFALRRILIEGHHHHHH	not soluble
MVLARREALDPRYQYDAALAAAKKGEAAIAVPAGVMIAGYWPIRSEIDPRPLLSAFRAKGARLCLPVVLDAETIAFREFLPDAELVPTGFGTMGPDEHAPLVDPAIMLMPLAGFDRLGHRLGYGAGHYDRALARFAERGLQPLLIGMAFDCQEVDYVPNEPHDIALHQILTESGLRSRAMDLEHHHHHH	not soluble
MAHHHHHHMYGPSFSQTVLVAATPVVMKSPPTFFKGGNFRRISRRSTLKTTPERVPRNMYQFIVGSPSGELGHHSMDVMVSVQETVIDSGITQMCCSMLKNRRRRSLWRVTYVFGNSGDTLYNCRALSIDGLARRSMRPSPVPPDKLLSSAALIPFSVPRDFFIVFN	not soluble
MSVSKKLFSTAVRGKSWWSHVEMGPPDAILGVTEAFKADSNPKKINLGVGAYRDDQGKPFVLPSVKEAERQVIAANLDKEYAGIVGLPEFTKLSAQLALGENSDVIKNKRIFTTQSISGTGALRIGSEFLSKYAKTKVIYQPTPTWGNHVPIFKFAGVDVKQYRYYDKSTCGFDETGALADIAQIPEGSTILLHACAHNPTGVDPSRDQWKKISDIVKKRNLFVFFDMAYQGFASGDVDNDAFAVRYFVEQGHNIVLSQSFAKNMGLYGERVGAFSVVTSDADEAARVASQVKILIRPLYSNPPVHGARIASRILADPALNKQWLGDVKLMADRIITMRTTLKDLLAKEGSTRNWEHITNQIGMFCFTGINPQQVEKLIKEHSVYLTKDGRISVAGISSNNVAYLAHALHQVTK	not soluble
MSETVKLDVGGTIFKTSRSTLTKFNGFFKTMLESDIGLKIDESGSIFIDRSPKNFDLILNFMRDGDVVLPNCELKLKELLVEAQFYLLDGLIELCNSKIELVEAPKIKLRFIESDEQFLQILAVQQKPMLIIEFCMVGNDMSIPYNFNLYEFMEKYSHQFDIYFRKFFVHYPHKIVNSERLSEDEPSRKWKARIKWKPTENGYYSQFPHNLRINRGGRIIRDATFLERLEKMIGEFDEYLKKQRNR	not soluble
MLSNNVNPVVGLSYRPLPETPPSGQAAAHPSMRLLEPNNDEFVRSVASPRLHHSSEALREVKHDVRQFQASGDRSLQQLRDLEVALNHWEASQPREFAKRGGMVAELRTAIDAYKQQLHEQAPSHANLDVKWLDGLRAGSMALQGDVKVWMQNLEDLHTRRPDEFAARLQQSTDALYSHLEAQWAKQHGTPPTASDVAGMPQWQEYTAMLRERFAGLDTIRPNLTAEENGVAILKTQTQLLALQRAQEALQASLADGVSHQGDVGLLRTQLLAGMVEGLIALQQADDDSALWSRPSAADSGGRLSVEAGAKASTDFEAPASKGELLRGKGISGEAVLEAFANIEMSVSGSRAGAAGEAEGSLRLYGESTARAEVSGSFEPFALSGSIGREEADGDTAASANPVLSLNVSAELSSKLGLEAQGSVTLGSLLKLDAEGRAEVGASAEVSGTAAIDKRSDGLGVRLEGQAEAFAGLKAEGTLTANLLHSKYADAHGLTASVTGSANVGLGATAEGKLVASPGQFEMGGEVGTTLGVGGNIGWNSKVDVNASTAYAYELASAAMARFDALRASQLDHDAKTSGNESQLNRLAANLQSHIDATSQKLDALNSAGVESRIRKVDGFAAGDGAQAAAGLAAQMALVGTGADLSHDIKITALNLRA	not soluble
MDAYPEAEAPPQSIVELVPVLIAVTDGGLRVLTVAQGMLLPNGPLSPLRNSLQAGVKLWVAKQTSQPMGYVEQLYTFVDTHRRNEHGMPVLYVSYLGLVREAADSILHPDAKWQDCYGYFPWEDLRTDGGQRDAVVGRLRIWANSADTEEVRQKRLKRIHLCWGVEPENWSEEYVLQRYEMLYESGLIAEAAEPQANFDFALTGQPMRHDHRRVLATALSRLRAKIKYRPVIFELMPPEFTLLQLQNSVEAISGRLLHKQNFRRQIQQQNLIEPSDTGVSGSKGRPAQLCRFRDDVLPDRLISDIGLPLGSR	not soluble
MKRDDLMQIIKRDGHVADFDPDKIYQAIIKAARTVYVIDDTWRQNLTHVTKKVVIDLEEAHVERPTINMVQSLVENRLMDAGYITIAEHYISYRLQRDLERNGYGDKIVVHLRFEQIK	soluble
MSLTARIGVVTFPGSLDDRDTQRAIKLAGAEPVALWHKDKDLKQVDAVVLPGGFSYGDYLRAGAISRFSPVMETVIEQAKSGMPVLGICNGFQILTEAHLLPGAMLGNNHLHFICRDQKLRVENADTAWTSDYEAGQEIHIPLKNMDGRYVADERTLDMLEAEGRVAFRYVVGGAAADGYGNPNGSLRDIAGITNEAGNVVGLMPHPEHAVEPLIGTGRTDGLPFFTSILKKLVNAEGHHHHHH	soluble
MPSGLEQCAPRCRALLQGESGVQIQGHYELKFEAVREAFAALFEDSQERGAALCIQVGGETVIDLWAGTADKDGAEAWHSDTIANLFSCTKTFTAVTALQLVAEGKLKLDAPVADYWPEFAAAGKAAITLRQLLCHQAGLPAVRELLPAQALYEWQTMVDALAAEQPWWTPGEGHGYAAITYGWLVGELIRRADGRGPGESIVARVARPLGLDFHVGLADEEFYRVAHIARGKGNMGDAAAQRLLQVTMREPDAMSTRAFTNPPSILTSTNKPEWRRMQQPAANGHGNARSLAGFYSGLLDGSLLEADMLEELTREHSLGMDKTLLTQTRFGLGCMLDQPQVANATFGLGARAFGHPGAGGSIGFADPEHDVAFGFVTNTLGPYVLMDPRAQKLVRVLSDCLLEHHHHHH	not soluble
PVSWVLQQAPTVKGLDIQGAHGSVWQGQASSVRWQRQNLGQVNWDFQWSSLFTGKAEFSVRFGRGSDMNIRGRGLVGYSLSDGLYAENLVASIPASKAVEQARLPVPIGVDGQLELNIRHATYAAPWCKTGEGTLVWSASGIQSPVGSLELGPVIADLKCQDSVLTASGEQTSTQVSSAFSAEMMPNQRYSTKAWFKPGADFPSSMGEQLKWLGQPNAQGQYEFDYKGRF	not soluble
MGSDKIHHHHHHMEIKILVDNTAKGKFLAQSGFSAIIKDEDSKILFDCGQNAHVFENNLKLMGEDDDFDAVIFSHGHYDHTDGFNYFIEKYGENLDVPIYIHKSAFVDRYHGERYIGIDENIKNFLKNYKNLKLIEDPFKISENLIISGTIPRTNFYERENFEMIENGQKVDDIIIDDMFVIVKDIIISGCTHSGLINCITHAKTLKEVNGIIGGFHMGTASENYINQVKNYLKTQNFRLVSPVHCTGFNATKELSDISGFKFGHVGSVFEI	not soluble
MKIEKFKVLLYLKKSRPDKSGKAPIMGRITVNRSMVQFSCKLSCTPDLWNPRESRLNGKSNEAVEVNAKLDKLLLSIHAAFDTLVERKADFDAEAVKNLFQGSLETQMTLLAMTDIVCEELRKRIGIDRAKGTYPAYFYTRRTLAEFIQKKFHSKDIAFGQLTEQFIHDYQFFVVDDKGLTIETSRHYLAIIKKVCRKAYKEGYADKCFFAHFSLPKQEEKTPKALSRESFEKIRDLVIPEHRSSHILARDLFLFACYTGTSYADAVSVTRDNLFTDDEGSLWLKYRRKKNELQACVKLLPEALELIEKYNDDTRPTLFPMLYHPNLRRLMKCLAVLADIKEDLTYHAGRHSFASLITLEAGVPIETICKMLGHSNLQTTQRYAKVTPKKLFEDMDKYIEATKDLKLIL	not soluble
MSRKNILQGLMAGTPSPAPAAAERPRATKGAIGAVSRSIADLKARAVIEVDPFLIDAGGLQDRLESDAAEDAELARSIATYGQQVPVLVRPHPTDENRFQIVYGRRRVLALRDLGQPVKALVRDLDDREAVLAQGQENTARRDLSFIEKVNFARQMADAGYDRKAICDALSVDKTLISRMVSVSERVPVALIEAIGAASGIGRDRWLALAELMEKTDDDLDTLISTMSLTAEGQGSDQRFEALFSYLSGQRRREPPAPLRTEPITGHDGRPLGDVSRGAASVVLRLRRSHAKGFEEWLLQNLPDLHRSWQSDRNGK	not soluble
MSNKDIRVVVGMSGGVDSSVTAYLLKEQGYDVIGIFMKNWDDTDENGVCTATEDYNDVIAVCNQIGIPYYAVNFEEQYWDKVFTYFLDEYKKGRTPNPDVMCNKEIKFKAFLEHALKLGADYVATGHYARIRRHDDGHVEMLRGVDNNKDQTYFLNQLSQEQLSKVMFPIGDIEKSEVRRIAEEQNLATAKKKDSTGICFIGERNFKEFLSHYLPAQSGEMLTLNGKKMGQHSGLMYYTIGQRHGLGIGGDGDPWFVVGKNLNDNVLYVEQGFHHDALYSDYLIASDYSFVNPSEIDLEKGFECTAKFRYRQKDTKVYVQRENENSIRVTFAEPVRAITPGQAVVFYNQEVCLGGATIDDVYKNEGQLSYVVLEHHHHHH	soluble
